Data from patent publication US20230121197A1, “ANTIBODIES SPECIFICALLY BINDING THE CARBOXYMETHYLATED CATALYTIC SUBUNIT OF PROTEIN PHOSPHATASE 2A” (Medizinische Universität Wien, priority 2020, published 2023).

Tests used:
[1] = target: T1, PP4c peptides L307, meL307 (Homo sapiens, UniProt P60510); test: ELISA with PP4c C-terminal undecapeptides; assay type: binding
T1 construct: carboxymethylated versus non-methylated PP2Ac, PP4c and PP6c C-terminal undecapeptides
Procedure: To further characterize the carboxymethyl-PP2Ac specificity of monoclonal antibody 7C10-C5 ELISAs were performed on carboxymethylated versus non-methylated PP2Ac, PP4c and PP6c C-terminal undecapeptides.
Specifically, flat-bottom Nunc-Immuno Medisorp 96-well ELISA plates (Thermo; 467320) were coated o/n at 4° C. with 50 μl of either a peptide of the sequence ac-HVTRRTPDYFL-OH (L309) (SEQ ID NO:18) at a concentration of 2 μg/ml in TBS (137 mM NaCl (AppliChem, #131659, 2.7 mM KCl (AppliChem, #131494), 24.8 mM Tris (AppliChem, #A1086), pH 7.4 with HCl), a peptide of the sequence ac-HVTRRTPDYFL-CH3 (meL309) (SEQ ID NO:18) 2 μg/ml in TBS, with a peptide of the sequence (ac-PSKKPVADYFL (L307) (SEQ ID NO:20) at a concentration of 2 μg/ml in TBS or with a peptide of the sequence ac-PSKKPVADYFL-CH3 (meL307) (SEQ ID NO:20) at a concentration of 2 μg/ml in TBS, with a peptide of the sequence ac-IPPRTTTPYFL (L305) (SEQ ID NO:22) at a concentration of 2 μg/ml in TBS or with a peptide of the sequence ac-IPPRTTTPYFL-CH3 (meL305) (SEQ ID NO:22) at a concentration of 2 μg/ml in TBS. […] Bound antibodies were detected colorimetrically by addition of 50 μl of 33 μg/ml […] (TMB) (Sigma, T2885) in 0.1 M sodium acetate pH 6.0 and 0.01% H2O2 (Sigma, H1009). […] The results from 560 nm read were subtracted from the 450 nm read.

[2] = target: T2, C-terminal PP2Ac peptide Y307F, CGEPHVTRRTPDFFL (15-mer); test: Western blot of 100 ng BSA crosslinked with peptide
T2 construct: Non-carboxymethylated; Phe in place of Tyr307; Crosslinked to BSA in the Western blot; free or linked to BSA in the ELISA
T2 peptide: CGEPHVTRRTPDFFL
Procedure: 100 ng of BSA crosslinked with peptides (L309: […] (SEQ ID NO:49), Y307F: […] (SEQ ID NO.50), pY307: […]pYFL (SEQ ID NO:51) or meL309: […]-CH₃) (SEQ ID NO:49) was separated by 10% SDS-PAGE and transferred to nitrocellulose membrane (0.2 μm, GE Healthcare). […] The membranes were blocked in 3% non-fatty dry milk (NFDM) in TBS-Tween for 1 h at RT and incubated with single clone hybridoma cell culture supernatant, clone 7C10-C5 diluted 1:100 in 0.5% NFDM in TBS-T (7C10 X63), recombinant single chain variable fragment of antibody 7C10-C5, undiluted (7C10 scFvs), recombinant bivalent single chain variable fragment 7C10-C5, undiluted (7C10 bi-scFvs) or single clone hybridoma cell culture supernatant, clone 1D7 (binding to non-carboxymethylated PP2Ac) 1:100 in 0.5% NFDM in TBS-T o/n at 4° C. After washing 3×5 min in TBS-T, blots incubated with recombinant antibodies were incubated with mouse anti-HA monoclonal antibody 16B12 (recognizing the hemagglutinin (HA) tag on the recombinant antibody), 1:10000 in 0.5% NFDM in TBS-T 2 h at room temperature. After washing 3×5 min in TBS-T, incubation with anti-mouse-HRP coupled secondary antibody for 1 h at RT and 3×10 min washes in TBS-T was performed. ECL was performed with GE Healthcare ECL reagents (RPN2106) mixed 1:3 with Clarity™ Western ECL Substrate, 500 ml #1705061 (Biorad). Signals were detected by exposure of X-ray films. […]

B1: 7C10-C5: α-carboxymethylation specific mouse monoclonal IgG1 antibody from single clone hybridoma 7C10-C5 (DSM ACC3350) (antibody)
heavy: MYRMQLLSCIALSLALVTNSDVQLQESGPGLVKPSQSLSLTCSVTGYSITSGYYWNWIRQFPGNKLEWMGYISYDGSNNYNPSLKNRISITRDTSKNQFFLKLNSVTTEDTATYYCAGRFAYWGQGTLVTVSAAKTTAPSVYPLAPVCGDTTGSSVTLGCLVKGYFPEPVTLTWNSGSLSSGVHTFPAVLQSDLYTLSSSVTVTSSTWPSQSITCNVAHPASSTKVDKKIEPRGPTIKPCPPCKCPAPNLLGGPSVFIFPPKIKDVLMISLSPIVTCVVVDVSEDDPDVQISWFVNNVEVHTAQTQTHREDYNSTLRVVSALPIQHQDWMSGKEFKCKVNNKDLPAPIERTISKPKGSVRAPQVYVLPPPEEEMTKKQVTLTCMVTDFMPEDIYVEWTNNGKTELNYKNTEPVLDSDGSYFMYSKLRVEKKNWVERNSYSCSVVHEGLHNHHTTKSFSRTPGK
light: MDMRVPAQLLGLLLLWLSGARCDVLMTQTPLSLPVSLGDQASISCRSSQSIVHSNGNTYLEWYLQKPGQSPKLLIYKVSNRFSGVPDRFSGSGSGTDFTLKINRVEAEDLGVYYCFQGSHVPWTFGGGTKLEIKADAAPTVSIFPPSSEQLTSGGASVVCFLNNFYPKDINVKWKIDGSERQNGVLNSWTDQDSKDSTYSMSSTLTLTKDEYERHNSYTCEATHKTSTSPIVKSFNRNEC
modifications: Amino acid sequence of the recombinant 7C10-C5 heavy chain; Amino acid sequence of the recombinant 7C10-C5 light chain
- carboxymethylated versus non-carboxymethylated PP4c peptide signal [1]: No significant difference

B2: 7C10-C5 monoclonal antibody (antibody, V domains shown)
VH: DVQLQESGPGLVKPSQSLSLTCSVTGYSITSGYYWNWIRQFPGNKLEWMGYISYDGSNNYNPSLKNRISITRDTSKNQFFLKLNSVTTEDTATYYCAGRFAYWGQGTLVTVSA
VL: DVLMTQTPLSLPVSLGDQASISCRSSQSIVHSNGNTYLEWYLQKPGQSPKLLIYKVSNRFSGVPDRFSGSGSGTDFTLKINRVEAEDLGVYYCFQGSHVPWTFGGGTKLEIK
notes: Used as hybridoma culture supernatant (ELISA, Western blot, IHC) or at 50 µg/mL (SPR); also called 7C10 X63; clone 7C10-C5
- binding result [2]: no binding (tested: supernatant 1:100)
